Experimental data published in publication PMC7452893 (Nature Communications, 2020).

Columns and labels:
Conditions in all cases: both partners purified
[1] = biological target: SARS-CoV-2 spike N-terminal domain (NTD) (SARS-CoV-2, Wuhan-Hu-1 (QHD43416), UniProt P0DTC2); assay: ELISA; direct ELISA; plates coated with 2 μg/ml recombinant spike, S1, RBD or NTD; scFv-Fc detected with AP-conjugated anti-human IgG; specificity panel (Fig. 1c)
[2] = biological target: T1, SARS-CoV-2 spike S1 subunit (SARS-CoV-2, Wuhan-Hu-1 (QHD43416), UniProt P0DTC2); assay: ELISA; direct ELISA; S1 as coating antigen (2 μg/ml), antibody diluted in series; apparent KD (Fig. 1d)
T1 construct: also called S1 domain

[3] = biological target: T1, SARS-CoV-2 spike S1 subunit; assay: ELISA; direct ELISA; plates coated with 2 μg/ml recombinant spike, S1, RBD or NTD; scFv-Fc detected with AP-conjugated anti-human IgG; specificity panel (Fig. 1c)

Row | Binder | binding result [1] | Kd [2] [nM] | binding result [3]
1 | MD17 (antibody, V domains shown, scFv-Fc format; also called MD17 scFv-Fc) VH: EVQLLESGGGLVQPGGSLRLSCSASGFTFSTYVMNWVRQAPGKGLEHVSGISSDGGITYYADSVKGRFTISRDNSKNTLYLQMSSLRVEDTAVYYCVKDQDSSSWYDAFDIWGQGTMVTVSS VL: DIVMTQSPSSLSASVGDRVTITCRASQSISNYLNWYQQKLGKAPKLLTYAASRLQSGVPSRFSASGSGTEFTLTISSLQPEDFATYYCQQSYTTPLTFGGGTKLEIK | no binding |  | 
2 | MD29 (antibody, V domains shown, scFv-Fc format; also called MD29 scFv-Fc) VH: QMQLVQSGGGLVQPGGSLRLSCSASGFTFSTYVMNWVRQAPGKGPEHVSGISSDGGITYYADSVKGRFTISRDNSKNTLYLQMSSLRVEDTAVYYCVKDQDSSSWYDAFDIWGQGTMVTVSS VL: NIRLTQSPSSLSASVGDRVTITCRATQSISSYLNWYQQKPGKAPNLLIYAASSLQSGVPSRFSGSGSGTDFTLTISSLQPEDFATYYCHQTYTSPYTFGQGTKLEIK | no binding |  | 
3 | MD45 (antibody, V domains shown, scFv-Fc format; also called MD45 scFv-Fc) VH: EVQLVQSGGGLVQPGGSLRLSCAASGFTVSSNYMTWVRQAPGKGLEWVSVIYSGGSTFYADSVKGRFTISRHNSKNTLYLQMNSLRAEDTAVYYCARDLSVRGGMDVWGQGTMVTVSS VL: EIVLTQSPGTLSLSPGERATLSCRASQSVNSSYLAWYQQKPGQAPRLLIYGASNRATGIPDRFSGSGSGTDFTLTISRLEPEDFAVYYCQQYGVSPEIIFGQGTRLEIK | no binding | 12.7 | 
4 | MD67 (antibody, V domains shown, scFv-Fc format; also called MD67 scFv-Fc) VH: EVQLVESGGGLVQPGGSLRLSCAASGFTVSSNYMTWVRQAPGKGLEWVSVIYSGGSTFYADSVKGRFTISRHNSKNTLYLQMNSLRAEDTAVYYCARDLSVRGGMDVWGQGTTVTVSS VL: not shown | no binding |  | 
5 | MD62 (antibody, V domains shown, scFv-Fc format; also called MD62 scFv-Fc) VH: EVQLVQSGGGLIQPGGSLRLSCAASGVTVSSNYMTWVRQAPGKGLEWVSLIYSGGSTYYADSVKGRFTISRDNSKNTLYLQMNSLRAEDTAVYYCARDLQYYGMDVWGQGTMVTVSS VL: AIRMTQSPSSVSASVGDRVTITCRASQDIGSWLGWYQQKPGKAPKLLIYAASSLAGGVPSRFSGSGSGTDFTLTISSLQPEDFATYYCQQANSFPLTFGGGTKLEIK | no binding |  | 
6 | MD47 (antibody, V domains shown, scFv-Fc format; also called MD47 scFv-Fc) V domain 1: QMQLVQSGGGLVQPGGSLRLSCAASGFTFSSYAMSWVRQAPGKGLEWVSAISSGGSTYYADSVKGRFTISRDNSKNTLYLQMNSLRAEDTAVYYCAKDLVTAPSYEAFDIWGQGTMITVSS V domain 2: NFMLTQPPSVSVAPGKTARITCGGNNIGSKSVHWYQQKPGQAPVLVIYYDSDRPSGIPERFSGSNSGNTATLTISRVEAGDEADYYCQVWDSSSHHHVVFGGGTKGTVL | no binding |  | binds
7 | MD63 (antibody, V domains shown, scFv-Fc format; also called MD63 scFv-Fc) VH: QVTLKESGGGVVQPGRSLRLSCAASGFTFSSYAMHWVRQAPGKGLEHVSAISSDGGITYFADSVKGRFTISRDNSRNTLFLQMSSLRVEDTAVYYCVKDQDSNSWYDAFDIWGRGTMVTVSS VL: not shown | no binding | 15.6 | 
